Values quoted from earlier work as cited in patent publication US20020168685A1, “Covalent chemical inducers of protein dimerization and their uses in high throughput binding screens” (priority 2001, published 2002).

Details: substrate nitrocefin

B1: E. cloacae P99 wt: wild-type E. cloacae P99 cephase (protein, UniProt P05364 21-381, looked up)
Beta-lactamase: TPVSEKQLAEVVANTITPLMKAQSVPGMAVAVIYQGKPHYYTFGKADIAANKPVTPQTLFELGSISKTFTGVLGGDAIARGEISLDDAVTRYWPQLTGKQWQGIRMLDLATYTAGGLPLQVPDEVTDNASLLRFYQNWQPQWKPGTTRLYANASIGLFGALAVKPSGMPYEQAMTTRVLKPLKLDHTWINVPKAEEAHYAWGYRDGKAVRVSPGMLDAQAYGVKTNVQDMANWVMANMAPENVADASLKQGIALAQSRYWRIGSMYQGLGWEMLNWPVEANTVVEGSDSKVALAPLPVAEVNPPAPPVKASWVHKTGSTGGFGSYVAFIPEKQIGIVMLANTSYPNPARVEAAYHILEALQ
% WT (percentage of wild-type kcat/Km as calculated in that experiment): 100% | Km: 25 ± 1 µM | kcat: 780 ± 30 s⁻¹
